Experimental data: patent publication US20180214548A1 (SHANGHAI YUNYI HEALTHCARE AND TECHNOLOGY, published 2018)

T1: B7-1 (human, UniProt P33681 35-242)
T1 sequence (looked up): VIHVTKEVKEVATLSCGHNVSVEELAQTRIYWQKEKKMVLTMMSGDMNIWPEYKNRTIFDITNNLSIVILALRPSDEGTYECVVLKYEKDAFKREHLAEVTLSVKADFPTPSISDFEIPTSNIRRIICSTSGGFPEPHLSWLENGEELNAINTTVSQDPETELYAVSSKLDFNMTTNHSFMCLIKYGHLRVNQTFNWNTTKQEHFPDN

T2: ICOS (human, UniProt Q9Y6W8 21-140, limits assumed)
T2 sequence (looked up): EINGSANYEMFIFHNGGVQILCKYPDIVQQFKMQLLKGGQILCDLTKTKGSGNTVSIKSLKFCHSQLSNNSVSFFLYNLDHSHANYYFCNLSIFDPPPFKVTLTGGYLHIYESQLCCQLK

T3: CTLA4 (human, UniProt P16410 37-162, limits assumed)
T3 sequence (looked up): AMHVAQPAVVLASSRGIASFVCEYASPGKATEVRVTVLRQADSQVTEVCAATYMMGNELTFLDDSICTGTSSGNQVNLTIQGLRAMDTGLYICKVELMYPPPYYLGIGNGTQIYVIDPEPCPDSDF

B1: chimeric anti-PD-1 antibody 32B5C7 (antibody, V domains shown)
VH: EVQLLESGGGLVQPGGSLRLSCAASGFTFSSYAMSWVRQAPGKGLEWVSTISGSGGTTYYADSVKGRFTISRDNSKNTLYLQMNSLRAEDTAVYYCTLTGDPDYWGQGTLVTVSS
VL: EIVLTQSPATLSLSPGERATLSCRASQSVSSYLAWYQQKPGQAPRLLIYDASKRATGIPARFSGSGSGTDFTLTISSLEPEDFAVYYCQQRNNWPLTFGGGTKVEIK
notes: Purified from hybridoma of Harbour H2L2 mice: human variable regions, rat constant regions
B2: chimeric anti-PD-1 antibody 21G8F11 (antibody, V domains shown)
VH: EVQLLESGGGLAQPGGSLRLSCAASGFSFNTYLMHWVRQAPGKGLEWVSAISGGGGNTYYADSVKGRFTISRDNSKNTLYLQMNSLRAEDTAVYYCAKENRIPVAPFDYWGQGTLVTVSS
VL: DIQMTQSPSTLSASVGDRVTITCRASQSISTWLAWYQQKPGKAPKLLIYKASSLESGVPSRFSGSGSGTEFTLTISSLQPDDLATYYCQQYNSFSWTFGQGTKVEIK
notes: as for B1
B3: chimeric anti-PD-1 antibody 76G5B3 (antibody, V domains shown)
VH: QVQLVESGGGVVQPGRSLRLSCAASGFTFSDYGFHWVRQAPGKGLEWVAVIWYDGSNEYYTDSVKGRFTISRDNSKNTLYLQMNSLRAEDTAMYFCVVNPFDYWGQGTLVTVSS
VL: DIQMTQSPSSLSAFVGDRVTITCRASQGINHYLAWYQQKPGKAPNLLILAASTLLSGVPSRFGGRGSGTDFTLIISSLQPEDVATYYCQKYDSAPYTFGQGTKLEIK
notes: as for B1

Key:
[1] = target: T4, full length human PD-1 on cells (human, UniProt Q15116 25-288); assay: flow cytometry, CHO-K1-hPD-1 cells; antibody 0.0316 nM
T4 construct: Also used here for PD-1 on human T cells/PBMC; also called CHO-K1-hPD-1; hPD-1
T4 sequence (Q15116 25-288 limits assumed): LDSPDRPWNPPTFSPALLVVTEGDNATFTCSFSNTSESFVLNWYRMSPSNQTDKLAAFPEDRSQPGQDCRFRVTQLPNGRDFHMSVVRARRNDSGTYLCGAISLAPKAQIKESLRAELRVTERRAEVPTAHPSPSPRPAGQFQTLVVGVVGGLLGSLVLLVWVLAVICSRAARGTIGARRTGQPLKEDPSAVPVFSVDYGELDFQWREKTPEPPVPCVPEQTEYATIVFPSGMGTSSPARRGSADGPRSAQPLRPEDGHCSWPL
Excerpt: (§1) CHO-K1 cells were stably transfected with pIRES plasmid containing the nucleic acid sequence encoding full length human PD-1 (see Example 2, step 2) to generate CHO-K1 cells stably expressing human PD-1 (herein referred to as CHO-K1-hPD-1 cells). Other CHO-K1 were stably transfected with pIRES plasmid containing the nucleic acid sequence encoding full length cyno PD-1 to generate CHO-K1 cells stably expressing cyno PD-1 (herein referred to as CHO-K1-cPD-1 cells). CHO-K1-hPD-1 and CHO-K1-cPD-1 cells were cultured and expanded in T-75 culture flasks to 90% confluence. The culture media was aspirated, and the cells were washed twice with HBSS (Hanks Balanced Salt Solution, Invitrogen). The cells were treated with enzyme-free cell dissociation solution (Versene solution, Invitrogen) and collected. The cells were then washed twice with HBSS, cell counts were determined, and cells were resuspended with HBSS at 2×10⁶ cells/mL. Goat serum was added to the cell suspension to a final concentration of 1%, and the cells were blocked for 30 minutes on ice and then washed twice with HBSS. The cells were collected after centrifugation and resuspended in FACS buffer (HBSS+1% BSA, v/v) at 2×10⁶ cells/mL. 100 uL of the cell suspension were then added to each well of 96-well plate. 100 uL of purified anti-PD-1 antibodies from Example 2 were added to each well of the 96-well plate and incubated for 2 hours on ice. […] The samples were washed three times with FACS buffer, and 100 uL fixation buffer (4% paraformaldehyde v/v) were added to each well and incubated for 10 minutes. The cells were then washed twice with FACS buffer and resuspended in 100 uL FACS buffer. The mean fluorescence intensity (MFI) was determined using FACS Calibur (BD), and the results are shown in FIGS. 7-8 and in Tables 10-11.

[2] = target: T4, full length human PD-1 on cells; assay: flow cytometry, CHO-K1-hPD-1 cells; antibody 1 nM
Excerpt: as §1

[3] = target: T4, full length human PD-1 on cells; assay: flow cytometry, CHO-K1-hPD-1 cells; antibody 31.6 nM
Excerpt: as §1

[4] = target: T5, human PD-1^ECD-hFc protein (Immunogen A) (human, UniProt Q15116 25-167); assay: protein-based receptor-ligand blocking ELISA: coated PD-1ECD-hFc, blocked ligand biotinylated PD-L2ECD, streptavidin-HRP
T5 construct: Biotinylated for the Octet assay; also called PD-1-hFc; hPD-1^ECD-hFc; not shown: human IgG Fc fragment (hFc)
T5 sequence (Q15116 25-167): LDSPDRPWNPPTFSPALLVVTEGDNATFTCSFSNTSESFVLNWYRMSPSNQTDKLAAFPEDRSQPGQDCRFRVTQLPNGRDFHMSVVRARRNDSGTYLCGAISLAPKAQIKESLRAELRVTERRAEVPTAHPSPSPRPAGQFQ
Method: Purified PD-1^ECD-hFc (Example 2) was diluted with PBS to a final concentration of 1.0 ug/mL, and 100 uL diluted PD-1^ECD-hFc were added to each well of a 96-well plate that was then sealed with plastic film and incubated at 4° C. overnight. The plate was washed twice with wash buffer (PBS+0.01% (v/v) Tween 20) and incubated with blocking buffer (PBS+[…]) at room temperature for 2 hours. The blocking buffer was aspirated, and 50 uL purified anti-PD-1 antibodies from Example 2 were added to each well of 96-well plate. […] The plate was washed three times with wash buffer (PBS+0.01% (v/v) Tween 20). 100 uL HRP-conjugated streptavidin (Sigma) were then added to each well and incubated at 37° C. for 2 hours. The plate was then washed three times with wash buffer, and 100 uL TMB substrate were added to each well. After 30 minutes of incubation at room temperature, the reaction was stopped by adding 100 uL stop solution (0.1N HCl). The absorbance at OD450 nm was measured with an ELISA plate reader (384plus SpectraMax, Molecular Devices).

[5] = target: T4, full length human PD-1 on cells; assay: flow cytometry, CHO-K1-hPD-1 cells; antibody 3.16 nM
Excerpt: as §1

B7-1 = target: T1, B7-1; assay: ELISA, coated protein 1 ug/mL; antibody concentration not stated
Method: (§2) 100 uL of the diluted recombinant proteins were added to each well of 96-well plate. The plates were sealed with plastic film and incubated at 4° C. overnight. The plates were washed twice with wash buffer (PBS+0.01% (v/v) Tween20), and incubated with blocking buffer (PBS+0.01% (v/v) Tween20+1% (w/w) BSA) at room temperature for 2 hours. The blocking buffer was aspirated away, and 100 uL of purified anti-PD-1 antibodies were added to each well and incubated for 2 hours at 37° C. The plates were washed three times with wash buffer (PBS+0.01% (v/v) Tween20). HRP-conjugated secondary antibody (Sigma) was added to each well and incubated for 2 hours at 37° C. After the plates were washed three times with wash buffer, 100 uL TMB substrate was added to each well and incubated for 30 minutes at room temperature. 100 uL stop solution (0.1N HCl) was added to each well to stop the reaction. The absorbance at 450 nm was measured with an ELISA plate reader (384plus SpectraMax, Molecular Devices).

ICOS = target: T2, ICOS; assay: as above
Method: as §2

CTLA4 = target: T3, CTLA4; assay: as above
Method: as §2

[6] = target: T4, full length human PD-1 on cells; assay: flow cytometry, CHO-K1-hPD-1 cells; antibody 0.316 nM
Excerpt: as §1

| Mean fluorescence intensity [1] | Mean fluorescence intensity [2] | Mean fluorescence intensity [3] | IC50 (read off the curve) [4] | Mean fluorescence intensity [5] | OD450 nm (B7-1) | OD450 nm (ICOS) | OD450 nm (CTLA4) | Mean fluorescence intensity [6] | Binder |
| --- | --- | --- | --- | --- | --- | --- | --- | --- | --- |
| 2.1 | 51.1 | 241 | ~2 nM | 97.5 | 0.36 | 0.483 | 0.172 | 26.1 | B1 |
|  | 166 |  | ~0.6 mg/L |  | 0.154 | 0.128 | 0.091 |  | B2 |
| 2.2 | 166 | 466 | ~1 nM | 280 | 0.271 | 0.173 | 0.135 | 76.8 | B3 |
